Publication PMC4148960, “Sox2 acts as a transcriptional repressor in neural stem cells” (BMC Neuroscience, 2014)

Biological target: T1, GST-fused Grg1 (UniProt Q62440 1-770)
T1 construct: Grg1 (groucho-related gene 1); cloned into pGEX4T1; No purification before mixing with Sox2 is described; the fusion was collected on glutathione-sepharose after the incubation; also called GST-Grg1; source: E. coli BL21, induced with IPTG, bacteria lysed
Experiment: pull-down; data not shown: amounts of radiolabelled Sox2 pulled down by GST-Grg1 and GST-Grg5 compared
Conditions: partners not purified

T1 sequence (Q62440 whole entry, the tested form may be a part): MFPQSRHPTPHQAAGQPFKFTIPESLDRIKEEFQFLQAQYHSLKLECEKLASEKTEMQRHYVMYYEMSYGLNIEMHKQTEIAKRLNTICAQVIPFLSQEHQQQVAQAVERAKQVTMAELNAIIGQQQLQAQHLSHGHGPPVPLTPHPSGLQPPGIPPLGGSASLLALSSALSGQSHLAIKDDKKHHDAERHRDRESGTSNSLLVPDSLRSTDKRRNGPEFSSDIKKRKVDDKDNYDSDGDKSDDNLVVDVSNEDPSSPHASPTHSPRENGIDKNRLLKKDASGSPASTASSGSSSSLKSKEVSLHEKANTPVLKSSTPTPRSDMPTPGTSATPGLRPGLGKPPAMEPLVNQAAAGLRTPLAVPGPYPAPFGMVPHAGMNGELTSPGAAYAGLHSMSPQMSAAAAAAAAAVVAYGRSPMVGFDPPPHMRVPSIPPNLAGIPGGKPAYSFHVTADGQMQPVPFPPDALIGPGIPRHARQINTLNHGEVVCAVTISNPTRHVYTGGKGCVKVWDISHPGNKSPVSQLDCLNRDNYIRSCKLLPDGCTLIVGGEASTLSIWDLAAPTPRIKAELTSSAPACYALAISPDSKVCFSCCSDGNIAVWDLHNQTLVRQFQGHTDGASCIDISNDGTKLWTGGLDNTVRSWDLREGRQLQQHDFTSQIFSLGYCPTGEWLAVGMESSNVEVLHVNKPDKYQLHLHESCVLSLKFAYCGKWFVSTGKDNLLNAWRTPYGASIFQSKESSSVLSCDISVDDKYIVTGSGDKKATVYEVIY

B1: radiolabelled Sox2 (in vitro translated) (natural protein)
chain: not shown
modifications: S^35-labelled
notes: Sox2, wild type; also called S^35-labelled Sox2; WT Sox2; source: in vitro translated (TNT T7 kit, Promega)
Question: For B1, which “fold more Sox2 pulled down than by Grg5” value is on record?
Answer: Its value is roughly 4 fold.
